Data from the supplement of paper PMC12042874.
± gives the uncertainty stated by the source.

assay: amyloid nucleation score (Sup35N fusion, yeast selection) (log enrichment); library NNK3; higher = more nucleation; inactive = no reads after selection
Procedure, shortened: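 Yeast lacking psi expressed peptides of 20 random codons fused to Sup35N, received 100 μM copper sulfate for 24 hours, and were then grown for 7 days at 30°C on medium lacking adenine and uracil. Illumina sequencing of input and output plasmid inserts provided the reads. Nucleation scores are DiMSum log enrichments of output over input, centred on the mode of non-aggregating sequences. Any sequence with under 100 input reads was excluded.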

| Substance | amyloid nucleation score |
| --- | --- |
| CGNHASVWRIGTVRKD | inactive |
| CGRGDSVLSI | inactive |
| CGSVSSI | inactive |
| CGSWYSCCKNINEVARSYTG | inactive |
| CGVEHYWRGLVG | inactive |
| CGVSWTVSIITDTFICN | 2.76 ± 0.06 |
| CHFPG | inactive |
| CHMWSEHSTTLMYYSKKY | 0.199 ± 0.41 |
| CHYFNNLACYGSRIEMT | inactive |
| CHYRYISYVENFPCSERVSI | inactive |
| CICWQHDKVVAYSLSDAGMA | inactive |
| CIFTIFNYQTLIELSHYFSR | 1.82 ± 0.067 |
| CIGTI | inactive |
| CIGWRIM | inactive |
| CIHSRTNNIRMTNCVRLGLG | inactive |
| CINNLYGRNVGSYGECEPFA | inactive |
| CIPCTVTFG | inactive |
| CISFPDDWRSHTI | inactive |
| CIVKTLQ | inactive |
| CKCVNLQFAVTIHCGGFVPF | 2.52 ± 0.072 |
| CKFSDW | inactive |
| CKGKSFFARSYS | inactive |
| CKMRVILKFIKNL | 0.48 ± 0.16 |

| Substance | amyloid nucleation score |
| --- | --- |
| CKNQHFLSLIGFLYHIDPKR | 0.709 ± 0.17 |
| CKTGPEDTC | inactive |
| CLATN | inactive |
| CLCKLEWHNTYMGYKR | 2.63 ± 0.08 |
| CLCNRDRLSSNFGGMTDKLH | inactive |
| CLCVTAGYISNTGGHRSWII | inactive |
| CLFSLPWWCSMM | inactive |
| CLGAGLRSGSAARLYEFGQV | inactive |
| CLGFSL | inactive |
| CLILCLIKYIERRFCWCFPW | inactive |
| CLKGNFIVNSNVFKCVLWYS | inactive |
| CLNHQASMVSTAPVEFFRFL | inactive |
| CLPWHWMLNYFGYKNVKS | inactive |
| CLQSQFLNFE | inactive |
| CLRLGLIMDTKK | inactive |
| CLSGRCRASMLPLGRVSKCD | inactive |
| CLTYRSG | inactive |
| CLVHEVPWRQMGSDLNKAAS | inactive |
| CLVPFAGQWHTVEIMMSSCQ | inactive |
| CLWRRCMPSHPMVEVSRLIW | inactive |
| CLYNGMWSCVEWNSKGSMHL | 1.26 ± 0.069 |
| CMCRLEGRTSDLCQESGSCC | -1.13 ± 1.5 |
| CMDYYKMYISYYFDAGWVLS | inactive |

| Substance | amyloid nucleation score |
| --- | --- |
| CMFVVFQLVTGHFTLLQYHG | 1.82 ± 0.077 |
| CMHGKGHSTFINNKDPVKVR | inactive |
| CMSPYALGEISKRRVEVDSY | inactive |
| CMSPYWML | inactive |
| CMYILFINVCMATGANYGSY | 1.58 ± 0.092 |
| CNLYPCPYSKITDTAMLLGC | inactive |
| CNMPGLVDDFLCHGICNNVV | inactive |
| CNRVPVFFMFYVEQGVLRWN | 2.13 ± 0.081 |
| CPHMKLFRLLI | inactive |
| CPYALMWSLSYSWSFPYRMS | 0.286 ± 0.56 |
| CQCEIF | 0.065 ± 0.56 |
| CQFFQFDLNYEFKLVSRAHK | inactive |
| CQKRETVFIKRD | inactive |
| CQLLHMELDNARRCEIKKPA | inactive |
| CQQIWRLGQCVQLLFCTRSK | 1.31 ± 0.11 |
| CQSSVLLCSYCGY | 2.65 ± 0.074 |
| CQYRVTSYHSSWFFSEAMHP | -0.268 ± 0.7 |
| CRCHRLVNIPSMFWCLKFVG | inactive |
| CRCKC | inactive |
| CRDNTGFCRGSAAVFNRCTG | inactive |
| CRDYYYHSQYCVVASVGTVV | inactive |
| CREVINDSFPNATWLHSGLV | inactive |
| CRHRYLDCCFGNWHP | inactive |

| Substance | amyloid nucleation score |
| --- | --- |
| CRLELPMGSTTDDDRGQKVD | -0.014 ± 0.53 |
| CRLRGKLIYLLIMDGTKE | inactive |
| CRLVINNYMSR | 2.83 ± 0.065 |
| CRMERGRFRLLKTQ | inactive |
| CRNKFLVKGAFTRGSREN | inactive |
| CRSAVKMGVPLRILLMY | inactive |
| CRTSHSWVMYWLRREMCY | inactive |
| CRVVDFG | -0.107 ± 0.49 |
| CRWEVCVVLFLMNCDKNGSC | inactive |
| CSASAYDSVIIDRIIYLIRG | inactive |
| CSEVFTSNWAYETASNCKRV | 1.08 ± 0.12 |
| CSEVGRS | inactive |
| CSIHL | inactive |
| CSLQLASDQGFSQRDDCTVH | inactive |
| CSNKQSDTSFAYLTIMNMCP | inactive |
| CSVTIGLIDTSPAIVSIPSD | inactive |
| CSVVSWFEAGFRFNDLMNGV | inactive |
| CTFDSSSNYADSAKLIG | inactive |
| CTFQYSIIYRCYYRYGVVR | inactive |
| CTITNWHNKYC | inactive |
| CTLVLLKQ | inactive |
| CTVNCMTNNATVLVVRGPLR | 2.26 ± 0.067 |
| CVASR | inactive |

| Substance | amyloid nucleation score |
| --- | --- |
| CVCPDNDSPCDLGWVRRGNR | inactive |
| CVDTDLVERWIAWVSSGVML | 0.663 ± 0.21 |
| CVFLCDDWFGFCNLNRRFKG | 2.82 ± 0.074 |
| CVFRWMLFSASEYDGRILKW | inactive |
| CVGQAPGVSLGFQTYQLILW | inactive |
| CVLKMLNNHHAHFILNGCRT | inactive |
| CVLNW | inactive |
| CVMCG | inactive |
| CVSIKIASPPF | 0.43 ± 0.3 |
| CVVCCG | inactive |
| CVYQLLGLVKMRNIRADGHA | inactive |
| CWFFV | 0.242 ± 0.39 |
| CWFKLMLASMIKENTLSTYG | inactive |
| CWHCVIDAGFLSQYVRVFYS | inactive |
| CWYQPPNDNVYFMMILYI | 1.97 ± 0.084 |
| CYQSE | inactive |
| CYRLQAFNARGTERTDAVYL | inactive |
| CYRRSYASKLSDV | inactive |
| CYRSISRRDPS | inactive |
| CYSPQFVCYATGHVKSDLML | inactive |
| CYWEPRSWISCRRPILRMSV | inactive |
| DARNET | inactive |
| DARVFKAVFRVLCDLVPASC | inactive |

| Substance | amyloid nucleation score |
| --- | --- |
| DATSNC | -0.232 ± 0.73 |
| DCNSVFVLRVFNSVLFGIKD | inactive |
| DCVGYRGGDGFAWTADELWS | inactive |
| DCWYHMPHQIWH | inactive |
| DDGGVTVVWTCGRVCIQMGN | 0.399 ± 0.24 |
| DDGSLDLMTKTA | inactive |
| DDKRTENG | inactive |
| DDLYMFMLIVRMLISQIKRV | inactive |
| DDSLDVSCLEYRSAME | inactive |
| DDTRYHAHTSNLGRITHRIQ | inactive |
| DECSAHSSFQLSKSILFGQV | inactive |
| DEGKSNPPF | inactive |
| DEPAFQDFVLYTSSSSCWRY | inactive |
| DEYATRIGYWCCK | 1.7 ± 0.084 |
| DFCLCNIRVFPEYRSHYGFG | inactive |
| DFCMVVHCIKFMGLCRGGDV | 1.02 ± 0.17 |
| DFCMWSYRHRDLCNSVFISS | inactive |
| DFFLDYL | inactive |
| DFFNWWSSVWFYLLMGRKVE | inactive |
| DFGCKSINCFLNATQ | inactive |
| DFGKNSLWSSREDNLKYWFM | inactive |
| DFHDLEWILNIEGACEEQGT | inactive |
| DFHYFKRVRNQGWNQKRKRY | inactive |

| Substance | amyloid nucleation score |
| --- | --- |
| DFIFIQILDVNCRWDRCMYC | 0.444 ± 0.16 |
| DFNDSLFLPRIDTPSLVFLQ | inactive |
| DFNLFKAQIYLWNSFDVSEF | 0.99 ± 0.14 |
| DFRSSRLHSIITTQFIYFYD | inactive |
| DFSFSIRVGSSALGVSKNTE | 1.31 ± 0.093 |
| DGILTVCYEVVNWNSSSVLL | inactive |
| DGLKNYRWYRFNTLDDGLAG | inactive |
| DGNLWMKSVCCWTKVFIELL | 1.37 ± 0.12 |
| DGYKMCRDGIGWIGT | inactive |
| DHGSIRRMGELHWMQLR | inactive |
| DHHQIFYVWSLPMA | inactive |
| DHRRLPSCPIFDWFTLNRGP | inactive |
| DIPAVINVMGSVYDGR | inactive |
| DISIGQRVRCTIFSGIGPLT | -0.913 ± 2.5 |
| DIVILSTSASSTS | inactive |
| DIWFGSSKKSVMRV | inactive |
| DIWYKVLYMPVLTV | inactive |
| DIWYRIKMFSIWKFMSHTTG | inactive |
| DKELKPNFRWGRNFYSFYIC | inactive |
| DKHMIGLYNPRASIELL | inactive |
| DLCAEFWIYWHVTMPVYLEM | inactive |
| DLFGCPDLMMYTELIMLYW | inactive |
| DLFSFYVGCLKSHPENPSLM | inactive |
